US10584243B2, “Antithrombotic compounds, methods and uses thereof” (The University of British Columbia, priority 2014, dated 2020)

Experiments:
[1] = mice; intravenous injection; for UHRAs maximum injected dose, maximum tolerated dose not reached; cited from earlier work
[2] = system: platelets in human platelet-rich plasma; experiment: Platelet activation by flow cytometry (CD62P); type: cell-based; settings: highest dose
Description: Blood from healthy consented donors was either collected into 3.8% sodium citrate tube with a blood/anticoagulant ratio of 9:1 or serum tube at Centre for Blood Research, University of British Columbia. The protocol was approved by the University of British Columbia clinical ethical committee and written consent was obtained from each individual donor. Platelet-rich plasma (PRP) was prepared by centrifuging citrated whole blood samples at 150×g for 10 min in an Allegra X-22R™ Centrifuge (Beckman Coulter™, Canada). Serum was prepared by centrifuging the blood collected in serum tube at 1200×g for 30 min one hour after blood collection.
The level of platelet activation after exposure to polyP inhibitors was quantified by flow cytometry. Ninety microliters of platelet rich plasma (PRP) was incubated at 37° C. with 10 μL of either 10 mg/mL or 20 mg/mL of UHRA, protamine or PEI stock solution (final polymer concentration 1 mg/mL and 2 mg/mL respectively) in PBS. […] The level of platelet activation was analyzed in a BD FACSCanto II flow cytometer (Becton Dickinson™) by gating platelets specific events based on their forward scattering profile (size of individual platelet). Activation of platelets was expressed as the percentage of platelet activation marker CD62-PE fluorescence detected in the 10,000 total events counted. […]

[3] = target: T1, human fibrinogen (Homo sapiens, UniProt P02671+P02675+P02679); experiment: Fibrin clot turbidity and scanning electron microscopy; settings: fibrin polymerization assay
T1 sequence (P02671 20-644 isoform P02671-2 limits assumed): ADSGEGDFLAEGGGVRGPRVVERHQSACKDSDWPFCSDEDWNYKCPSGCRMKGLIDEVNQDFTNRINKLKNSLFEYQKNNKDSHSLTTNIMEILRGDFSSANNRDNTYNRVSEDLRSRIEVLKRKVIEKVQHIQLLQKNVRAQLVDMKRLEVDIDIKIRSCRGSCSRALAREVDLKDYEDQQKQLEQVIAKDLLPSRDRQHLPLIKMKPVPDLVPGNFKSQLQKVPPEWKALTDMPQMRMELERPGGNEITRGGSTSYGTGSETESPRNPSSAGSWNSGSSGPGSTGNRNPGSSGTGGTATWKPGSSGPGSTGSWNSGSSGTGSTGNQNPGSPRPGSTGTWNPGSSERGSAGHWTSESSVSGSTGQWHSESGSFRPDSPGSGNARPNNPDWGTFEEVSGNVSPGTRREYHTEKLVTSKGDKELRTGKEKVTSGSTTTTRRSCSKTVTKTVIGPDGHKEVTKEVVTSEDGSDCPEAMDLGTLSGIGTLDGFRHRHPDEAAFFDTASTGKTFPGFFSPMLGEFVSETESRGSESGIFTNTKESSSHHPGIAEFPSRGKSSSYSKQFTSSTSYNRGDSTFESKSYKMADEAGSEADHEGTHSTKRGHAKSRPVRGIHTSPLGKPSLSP
T1 sequence (P02675 45-491 limits assumed): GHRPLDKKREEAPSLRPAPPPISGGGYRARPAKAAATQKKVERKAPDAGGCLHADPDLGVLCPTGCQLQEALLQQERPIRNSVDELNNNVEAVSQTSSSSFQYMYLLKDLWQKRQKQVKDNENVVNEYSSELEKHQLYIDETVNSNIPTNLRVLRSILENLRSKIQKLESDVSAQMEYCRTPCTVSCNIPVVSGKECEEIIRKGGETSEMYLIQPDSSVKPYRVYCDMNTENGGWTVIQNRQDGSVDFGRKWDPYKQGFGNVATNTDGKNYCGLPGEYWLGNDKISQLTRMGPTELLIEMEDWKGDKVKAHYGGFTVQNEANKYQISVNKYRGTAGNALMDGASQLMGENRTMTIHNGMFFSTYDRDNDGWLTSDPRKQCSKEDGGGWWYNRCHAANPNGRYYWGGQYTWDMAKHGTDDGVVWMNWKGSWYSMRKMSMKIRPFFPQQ
T1 sequence (P02679 27-437 isoform P02679-2 limits assumed): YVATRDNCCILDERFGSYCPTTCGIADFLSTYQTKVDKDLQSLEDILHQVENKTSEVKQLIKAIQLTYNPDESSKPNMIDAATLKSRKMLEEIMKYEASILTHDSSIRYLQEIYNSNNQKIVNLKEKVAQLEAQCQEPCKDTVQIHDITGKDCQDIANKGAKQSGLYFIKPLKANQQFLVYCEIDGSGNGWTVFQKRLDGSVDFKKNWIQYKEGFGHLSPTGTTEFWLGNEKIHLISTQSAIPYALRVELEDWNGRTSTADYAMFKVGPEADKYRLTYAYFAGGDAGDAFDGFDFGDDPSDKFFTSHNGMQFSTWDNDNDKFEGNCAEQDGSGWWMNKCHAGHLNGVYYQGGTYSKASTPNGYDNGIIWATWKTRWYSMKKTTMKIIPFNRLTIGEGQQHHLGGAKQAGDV
Description: The morphology of clots formed in presence of UHRA and protamine was determined by scanning electron microscopy (SEM) analysis. All samples for SEM were randomly coded and blinded to the individual performing imaging and analysis to avoid bias. Fibrin clots were formed in sterile round-bottomed 5 mL polypropylene tubes (BD Falcon) by mixing purified human fibrinogen (200 μL, 3 mg/mL) in 20 mM HEPES (pH 7.4 and 150 mM NaCl) with 2.5 NIHU/mL thrombin and 3 mM CaCl2 and UHRA or protamine (in HEPES buffer) (0-500 μg/mL). All concentrations are final. Control clot was prepared in the absence of UHRA or protamine. After incubating the solution for 1 hour at 37° C., clots were immediately fixed using karnovsky fixative (2.5% glutaraldehyde and 4% formaldehyde) and repeatedly washed with 0.1 M sodium cacodylate buffer (pH=7.4) followed by post-fixation with 1% v/v osmium tetroxide. The samples were washed three times with distilled water and then dehydrated with gradient ethanol series (20-95% v/v). […] Fiber diameters of all clots were measured with image analysis software package ImageJ™ (National Institutes of Health, USA). Fiber diameter (n=30) from 8 separate areas of each clot was measured and used for calculating the average fiber size formed.

protamine sulfate
dose tolerated (up to) [1]: up to 20 mg/kg
platelet activation (CD62P expression) [2]: about 30%
final turbidity (A405) of fibrin clots [3]: elevated final turbidity
